B1: NIgG4E4A1(G4S)2 (Fc fusion)
chain 1: DVQLQESGGGLVQPGGSLRLSCAASGFRFSNYAMRWYRQAPGKEREFVARISSTGFITRYTASVRDRFTISRDNDKNMMYLQLNKLTPQDTAHYYCNAESTDYWGQGTQVTVSGGGGSGGGGSGPPCPPCPAPEFLGGPSVFLFPPKPKDTLMISRTPEVTCVVVDVSQEDPEVQFNWYVDGVEVHNAKTKPREEQFNSTYRVVSVLTVLHQDWLNGKEYKCKVSNKGLPSSIEKTISKAKGQPREPQVYTLPPCQEEMTKNQVSLWCLVKGFYPSDIAVEWESNGQPENNYKTTPPVLDSDGSFFLYSRLTVDKSRWQEGNVFSCSVMHEALHNHYTQKSLSLSLGK
chain 2: EVQLLESGGGLVQPGGSLRLSCAASGFTFGNYDMAWVRQAPGKRPEWVSSIDTGGDITHYADSVKGRFTISRDNAKNTLYLQMNSLRPEDTAVYWCATDEEYALGPNEFDYYGQGTLVTVSSGGGGSGGGGSGPPCPPCPAPEFLGGPSVFLFPPKPKDTLMISRTPEVTCVVVDVSQEDPEVQFNWYVDGVEVHNAKTKPREEQFNSTYRVVSVLTVLHQDWLNGKEYKCKVSNKGLPSSIEKTISKAKGQPREPQVCTLPPSQEEMTKNQVSLSCAVKGFYPSDIAVEWESNGQPENNYKTTPPVLDSDGSFFLVSRLTVDKSRWQEGNVFSCSVMHEALHNHYTQKSLSLSLGK
B2: NIgG4E4A1(G4S)3 (Fc fusion)
chain 1: DVQLQESGGGLVQPGGSLRLSCAASGFRFSNYAMRWYRQAPGKEREFVARISSTGFITRYTASVRDRFTISRDNDKNMMYLQLNKLTPQDTAHYYCNAESTDYWGQGTQVTVSGGGGSGGGGSGGGGSGPPCPPCPAPEFLGGPSVFLFPPKPKDTLMISRTPEVTCVVVDVSQEDPEVQFNWYVDGVEVHNAKTKPREEQFNSTYRVVSVLTVLHQDWLNGKEYKCKVSNKGLPSSIEKTISKAKGQPREPQVYTLPPCQEEMTKNQVSLWCLVKGFYPSDIAVEWESNGQPENNYKTTPPVLDSDGSFFLYSRLTVDKSRWQEGNVFSCSVMHEALHNHYTQKSLSLSLGK
chain 2: EVQLLESGGGLVQPGGSLRLSCAASGFTFGNYDMAWVRQAPGKRPEWVSSIDTGGDITHYADSVKGRFTISRDNAKNTLYLQMNSLRPEDTAVYWCATDEEYALGPNEFDYYGQGTLVTVSSGGGGSGGGGSGGGGSGPPCPPCPAPEFLGGPSVFLFPPKPKDTLMISRTPEVTCVVVDVSQEDPEVQFNWYVDGVEVHNAKTKPREEQFNSTYRVVSVLTVLHQDWLNGKEYKCKVSNKGLPSSIEKTISKAKGQPREPQVCTLPPSQEEMTKNQVSLSCAVKGFYPSDIAVEWESNGQPENNYKTTPPVLDSDGSFFLVSRLTVDKSRWQEGNVFSCSVMHEALHNHYTQKSLSLSLGK
B3: CIgG4E4A1(G4S)2 (Fc fusion)
chain 1: GPPCPPCPAPEFLGGPSVFLFPPKPKDTLMISRTPEVTCVVVDVSQEDPEVQFNWYVDGVEVHNAKTKPREEQFNSTYRVVSVLTVLHQDWLNGKEYKCKVSNKGLPSSIEKTISKAKGQPREPQVYTLPPCQEEMTKNQVSLWCLVKGFYPSDIAVEWESNGQPENNYKTTPPVLDSDGSFFLYSRLTVDKSRWQEGNVFSCSVMHEALHNHYTQKSLSLSLGKGGGGSGGGGSDVQLQESGGGLVQPGGSLRLSCAASGFRFSNYAMRWYRQAPGKEREFVARISSTGFITRYTASVRDRFTISRDNDKNMMYLQLNKLTPQDTAHYYCNAESTDYWGQGTQVTVS
chain 2: GPPCPPCPAPEFLGGPSVFLFPPKPKDTLMISRTPEVTCVVVDVSQEDPEVQFNWYVDGVEVHNAKTKPREEQFNSTYRVVSVLTVLHQDWLNGKEYKCKVSNKGLPSSIEKTISKAKGQPREPQVCTLPPSQEEMTKNQVSLSCAVKGFYPSDIAVEWESNGQPENNYKTTPPVLDSDGSFFLVSRLTVDKSRWQEGNVFSCSVMHEALHNHYTQKSLSLSLGKGGGGSGGGGSEVQLLESGGGLVQPGGSLRLSCAASGFTFGNYDMAWVRQAPGKRPEWVSSIDTGGDITHYADSVKGRFTISRDNAKNTLYLQMNSLRPEDTAVYWCATDEEYALGPNEFDYYGQGTLVTVSS
B4: NIgG4E4A1(RS) (Fc fusion)
chain 1: DVQLQESGGGLVQPGGSLRLSCAASGFRFSNYAMRWYRQAPGKEREFVARISSTGFITRYTASVRDRFTISRDNDKNMMYLQLNKLTPQDTAHYYCNAESTDYWGQGTQVTVSRSGPPCPPCPAPEFLGGPSVFLFPPKPKDTLMISRTPEVTCVVVDVSQEDPEVQFNWYVDGVEVHNAKTKPREEQFNSTYRVVSVLTVLHQDWLNGKEYKCKVSNKGLPSSIEKTISKAKGQPREPQVYTLPPCQEEMTKNQVSLWCLVKGFYPSDIAVEWESNGQPENNYKTTPPVLDSDGSFFLYSRLTVDKSRWQEGNVFSCSVMHEALHNHYTQKSLSLSLGK
chain 2: EVQLLESGGGLVQPGGSLRLSCAASGFTFGNYDMAWVRQAPGKRPEWVSSIDTGGDITHYADSVKGRFTISRDNAKNTLYLQMNSLRPEDTAVYWCATDEEYALGPNEFDYYGQGTLVTVSSRSGPPCPPCPAPEFLGGPSVFLFPPKPKDTLMISRTPEVTCVVVDVSQEDPEVQFNWYVDGVEVHNAKTKPREEQFNSTYRVVSVLTVLHQDWLNGKEYKCKVSNKGLPSSIEKTISKAKGQPREPQVCTLPPSQEEMTKNQVSLSCAVKGFYPSDIAVEWESNGQPENNYKTTPPVLDSDGSFFLVSRLTVDKSRWQEGNVFSCSVMHEALHNHYTQKSLSLSLGK
B5: CIgG4E4A1(G4S)3 (Fc fusion)
chain 1: GPPCPPCPAPEFLGGPSVFLFPPKPKDTLMISRTPEVTCVVVDVSQEDPEVQFNWYVDGVEVHNAKTKPREEQFNSTYRVVSVLTVLHQDWLNGKEYKCKVSNKGLPSSIEKTISKAKGQPREPQVYTLPPCQEEMTKNQVSLWCLVKGFYPSDIAVEWESNGQPENNYKTTPPVLDSDGSFFLYSRLTVDKSRWQEGNVFSCSVMHEALHNHYTQKSLSLSLGKGGGGSGGGGSGGGGSDVQLQESGGGLVQPGGSLRLSCAASGFRFSNYAMRWYRQAPGKEREFVARISSTGFITRYTASVRDRFTISRDNDKNMMYLQLNKLTPQDTAHYYCNAESTDYWGQGTQVTVS
chain 2: GPPCPPCPAPEFLGGPSVFLFPPKPKDTLMISRTPEVTCVVVDVSQEDPEVQFNWYVDGVEVHNAKTKPREEQFNSTYRVVSVLTVLHQDWLNGKEYKCKVSNKGLPSSIEKTISKAKGQPREPQVCTLPPSQEEMTKNQVSLSCAVKGFYPSDIAVEWESNGQPENNYKTTPPVLDSDGSFFLVSRLTVDKSRWQEGNVFSCSVMHEALHNHYTQKSLSLSLGKGGGGSGGGGSGGGGSEVQLLESGGGLVQPGGSLRLSCAASGFTFGNYDMAWVRQAPGKRPEWVSSIDTGGDITHYADSVKGRFTISRDNAKNTLYLQMNSLRPEDTAVYWCATDEEYALGPNEFDYYGQGTLVTVSS
B6: CIgG4E4A1(G4S)1 (Fc fusion)
chain 1: GPPCPPCPAPEFLGGPSVFLFPPKPKDTLMISRTPEVTCVVVDVSQEDPEVQFNWYVDGVEVHNAKTKPREEQFNSTYRVVSVLTVLHQDWLNGKEYKCKVSNKGLPSSIEKTISKAKGQPREPQVYTLPPCQEEMTKNQVSLWCLVKGFYPSDIAVEWESNGQPENNYKTTPPVLDSDGSFFLYSRLTVDKSRWQEGNVFSCSVMHEALHNHYTQKSLSLSLGKGGGGSDVQLQESGGGLVQPGGSLRLSCAASGFRFSNYAMRWYRQAPGKEREFVARISSTGFITRYTASVRDRFTISRDNDKNMMYLQLNKLTPQDTAHYYCNAESTDYWGQGTQVTVS
chain 2: GPPCPPCPAPEFLGGPSVFLFPPKPKDTLMISRTPEVTCVVVDVSQEDPEVQFNWYVDGVEVHNAKTKPREEQFNSTYRVVSVLTVLHQDWLNGKEYKCKVSNKGLPSSIEKTISKAKGQPREPQVCTLPPSQEEMTKNQVSLSCAVKGFYPSDIAVEWESNGQPENNYKTTPPVLDSDGSFFLVSRLTVDKSRWQEGNVFSCSVMHEALHNHYTQKSLSLSLGKGGGGSEVQLLESGGGLVQPGGSLRLSCAASGFTFGNYDMAWVRQAPGKRPEWVSSIDTGGDITHYADSVKGRFTISRDNAKNTLYLQMNSLRPEDTAVYWCATDEEYALGPNEFDYYGQGTLVTVSS
B7: CIgG4E4A1(RS) (Fc fusion)
chain 1: GPPCPPCPAPEFLGGPSVFLFPPKPKDTLMISRTPEVTCVVVDVSQEDPEVQFNWYVDGVEVHNAKTKPREEQFNSTYRVVSVLTVLHQDWLNGKEYKCKVSNKGLPSSIEKTISKAKGQPREPQVYTLPPCQEEMTKNQVSLWCLVKGFYPSDIAVEWESNGQPENNYKTTPPVLDSDGSFFLYSRLTVDKSRWQEGNVFSCSVMHEALHNHYTQKSLSLSLGKRSDVQLQESGGGLVQPGGSLRLSCAASGFRFSNYAMRWYRQAPGKEREFVARISSTGFITRYTASVRDRFTISRDNDKNMMYLQLNKLTPQDTAHYYCNAESTDYWGQGTQVTVS
chain 2: GPPCPPCPAPEFLGGPSVFLFPPKPKDTLMISRTPEVTCVVVDVSQEDPEVQFNWYVDGVEVHNAKTKPREEQFNSTYRVVSVLTVLHQDWLNGKEYKCKVSNKGLPSSIEKTISKAKGQPREPQVCTLPPSQEEMTKNQVSLSCAVKGFYPSDIAVEWESNGQPENNYKTTPPVLDSDGSFFLVSRLTVDKSRWQEGNVFSCSVMHEALHNHYTQKSLSLSLGKRSEVQLLESGGGLVQPGGSLRLSCAASGFTFGNYDMAWVRQAPGKRPEWVSSIDTGGDITHYADSVKGRFTISRDNAKNTLYLQMNSLRPEDTAVYWCATDEEYALGPNEFDYYGQGTLVTVSS
B8: NIgG4E4A1(G4S)1 (Fc fusion)
chain 1: DVQLQESGGGLVQPGGSLRLSCAASGFRFSNYAMRWYRQAPGKEREFVARISSTGFITRYTASVRDRFTISRDNDKNMMYLQLNKLTPQDTAHYYCNAESTDYWGQGTQVTVSGGGGSGPPCPPCPAPEFLGGPSVFLFPPKPKDTLMISRTPEVTCVVVDVSQEDPEVQFNWYVDGVEVHNAKTKPREEQFNSTYRVVSVLTVLHQDWLNGKEYKCKVSNKGLPSSIEKTISKAKGQPREPQVYTLPPCQEEMTKNQVSLWCLVKGFYPSDIAVEWESNGQPENNYKTTPPVLDSDGSFFLYSRLTVDKSRWQEGNVFSCSVMHEALHNHYTQKSLSLSLGK
chain 2: EVQLLESGGGLVQPGGSLRLSCAASGFTFGNYDMAWVRQAPGKRPEWVSSIDTGGDITHYADSVKGRFTISRDNAKNTLYLQMNSLRPEDTAVYWCATDEEYALGPNEFDYYGQGTLVTVSSGGGGSGPPCPPCPAPEFLGGPSVFLFPPKPKDTLMISRTPEVTCVVVDVSQEDPEVQFNWYVDGVEVHNAKTKPREEQFNSTYRVVSVLTVLHQDWLNGKEYKCKVSNKGLPSSIEKTISKAKGQPREPQVCTLPPSQEEMTKNQVSLSCAVKGFYPSDIAVEWESNGQPENNYKTTPPVLDSDGSFFLVSRLTVDKSRWQEGNVFSCSVMHEALHNHYTQKSLSLSLGK

Target: mixture of three Der p 2 specific recombinant human IgE clones H10, H12, P4E (human) (UniProt P01854)
Assay: RBL-SX38 IgE displacement, FACS

Sequence of mixture of three Der p 2 specific recombinant human IgE clones H10, H12, P4E (human) (P01854 other isoform, or with tags, fused parts or gaps): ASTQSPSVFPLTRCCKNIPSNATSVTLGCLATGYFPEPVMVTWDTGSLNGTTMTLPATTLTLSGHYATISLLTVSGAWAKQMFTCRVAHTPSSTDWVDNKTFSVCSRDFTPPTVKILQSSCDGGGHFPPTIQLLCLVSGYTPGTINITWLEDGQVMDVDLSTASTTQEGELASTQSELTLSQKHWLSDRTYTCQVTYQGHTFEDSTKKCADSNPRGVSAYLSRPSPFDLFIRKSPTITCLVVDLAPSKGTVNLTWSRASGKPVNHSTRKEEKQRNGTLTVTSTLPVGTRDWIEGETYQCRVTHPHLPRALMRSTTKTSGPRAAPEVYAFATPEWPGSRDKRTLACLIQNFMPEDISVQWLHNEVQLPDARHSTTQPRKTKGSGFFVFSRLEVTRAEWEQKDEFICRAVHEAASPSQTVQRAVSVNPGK

Row | EC50 | Max effect/effect 1 µM | Binder
1 | 0.0164 µM | 98% | B1
2 | 0.036 µM | 92% | B2
3 | 0.107 µM | 94% | B3
4 | 0.0062 µM | 90% | B4
5 | 0.0316 µM | 98% | B5
6 | 0.241 µM | 87% | B6
7 | – | 0% | B7
8 | 0.017 µM | 97% | B8

Source: patent US20250171562A1
